Where a chain is given by its changes, count along the chain named. Names may count otherwise.
Experiments:
[1] = target: T1, C-terminal, HMK-tagged P167L Rho, 32P-labelled (UniProt P0AG30 1-419, P167L, radiolabelled with [γ-32P]ATP in the HMK tag using protein kinase A); assay: Fe-BABE hydroxyl-radical protein cleavage; 0.2 µM 32P-labelled HMK-tagged P167L Rho and 2.5 µM Fe-BABE-labelled Psu, 37°C 30 min, 50 mM MOPS, 120 mM NaCl, 0.1 mM EDTA, 10 mM MgCl2, 10% glycerol, pH 8.0, 1 mM ATP; cleavage started with 4 mM ascorbate and hydrogen peroxide; SDS-PAGE autoradiogram; details: both partners purified
T1 construct: Transcription termination factor Rho; also called P^32-labelled HMK-tagged P167L Rho; end-labelled Rho; not shown: HMK (heart muscle protein kinase) tag, C-terminal, kept

[2] = target: T1, C-terminal, HMK-tagged P167L Rho, …; assay: limited trypsin digestion (protein foot-printing); 0.2 µM 32P-labelled HMK-tagged P167L Rho with 2.5 µM WT Psu in transcription buffer with 1 mM ATP, 10 min 37°C, then increasing trypsin for 1 min; gradient SDS-PAGE autoradiogram; details: both partners purified
[3] = target: T2, Single Cys derivative S153C of P167L Rho (UniProt P0AG30 1-419, P167L | C202S | S153C); assay: cross-linking; sulpho-LC-SPDP (cysteine to amine): SPDP-derivatized 32P-labelled Psu (~0.5 µM) with single-Cys Rho derivatives (~2 µM), 10 min 25°C, phosphate buffer (100 mM NaH2PO4, 150 mM NaCl, 1 mM EDTA, pH 7.5); non-reducing 12% PAGE; species sensitive to DTT; details: both partners purified
T2 construct: Transcription termination factor Rho; natural cysteine removed, made on P167L Rho; also called S153C Rho

[4] = target: T3, Single Cys derivative S346C of P167L Rho (UniProt P0AG30 1-419, P167L | C202S | S346C); assay: as above; details: both partners purified
T3 construct: Transcription termination factor Rho; natural cysteine removed, made on P167L Rho; also called S346C Rho

[5] = target: the molecule itself; assay: as above
[6] = target: T4, TMRA-labelled S153C Rho (on P167L Rho) (UniProt P0AG30 1-419, P167L | C202S | S153C, tetramethylrhodamine-5-maleimide (TMRA) on the single cysteine at 153); assay: FRET or BRET; fluorescein-labelled Psu (50 nM) and TMRA-labelled Rho (100 nM), 25 mM Tris-HCl pH 8.0, 50 mM KCl, 5 mM MgCl2, 25°C, 15 min; excitation 470 nm, emission enhancement at 570 nm; details: both partners purified
T4 construct: Transcription termination factor Rho; natural cysteine removed, made on P167L Rho; also called TMRA–Rho S153C; source: labelled with tetramethylrhodamine-5-maleimide, excess dye removed

[7] = target: T5, TMRA-labelled S346C Rho (on P167L Rho) (UniProt P0AG30 1-419, P167L | C202S | S346C, tetramethylrhodamine-5-maleimide (TMRA) on the single cysteine at 346); assay: as above; details: both partners purified
T5 construct: Transcription termination factor Rho; natural cysteine removed, made on P167L Rho; also called TMRA–Rho S346C; source: labelled with tetramethylrhodamine-5-maleimide, excess dye removed
T5 sequence (P0AG30 whole entry P167L/C202S/S346C): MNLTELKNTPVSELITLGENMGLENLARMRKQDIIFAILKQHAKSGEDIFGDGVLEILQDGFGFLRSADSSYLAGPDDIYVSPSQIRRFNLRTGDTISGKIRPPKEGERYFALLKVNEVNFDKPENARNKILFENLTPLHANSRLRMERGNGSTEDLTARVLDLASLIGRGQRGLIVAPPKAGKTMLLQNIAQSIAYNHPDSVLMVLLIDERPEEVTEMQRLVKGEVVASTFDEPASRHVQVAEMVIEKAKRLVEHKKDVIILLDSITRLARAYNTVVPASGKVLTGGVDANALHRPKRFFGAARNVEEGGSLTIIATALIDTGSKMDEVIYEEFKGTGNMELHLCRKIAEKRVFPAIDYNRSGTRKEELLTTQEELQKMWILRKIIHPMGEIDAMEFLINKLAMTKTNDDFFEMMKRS

T4 sequence (P0AG30 whole entry S153C/P167L/C202S): as the sequence (P0AG30 whole entry P167L/C202S/S346C) above, with S153C, C346S counted along it
T1 sequence (P0AG30 whole entry P167L): as the sequence (P0AG30 whole entry P167L/C202S/S346C) above, with S202C, C346S counted along it
T3 sequence (P0AG30 whole entry P167L/C202S/S346C): as the sequence (P0AG30 whole entry P167L/C202S/S346C) above
T2 sequence (P0AG30 whole entry S153C/P167L/C202S): as the sequence (P0AG30 whole entry P167L/C202S/S346C) above, with S153C, C346S counted along it

B1: Fe-BABE-conjugated Psu S181C (natural protein, bacteriophage P4)
chain: MESTALQQAFDTSQNNKAAWLQRKNELAAAEQEYLRLLSGEGRNVSRLDELRNIIEVRKWQVNQAAGRYIRSHEAVQHISIRDRLNDFMQQHGTALAAALAPELMGYSELTAIARNSAIQRATDALREALLSWLAKGEKINYSAQDSDILTTIGFRPDVASVDDSREKFTPAQNMIFSRKCAQLASRQSV
modifications: Fe-BABE conjugated to the single cysteine at 181
notes: Psu (polarity suppressor), capsid-decoration protein of bacteriophage P4; natural cysteines removed; also called Fe-BABE-labelled Psu; source: conjugated with 5-fold molar excess of Fe-BABE (Pierce), desalted
B1: binds [1].

B2: WT Psu (in vitro assays) (natural protein, bacteriophage P4)
chain: B1 chain with S13C, S117C, C181S
notes: Psu (polarity suppressor), 21 kDa capsid-decoration protein of bacteriophage P4; purification may stand in the Supplementary Methods
B2: binds [2].

B3: SPDP-derivatized, HMK-tagged non-cysteine derivative of Psu (C13S and C117S) (natural protein, bacteriophage P4)
chain: B1 chain with C181S
modifications: 32P end-label in the HMK tag; primary amines (lysines) labelled with sulpho-LC-SPDP
notes: Psu (polarity suppressor), capsid-decoration protein of bacteriophage P4; natural cysteines removed; also called SPDP-labelled Psu; radiolabelled Psu; source: labelled with sulpho-LC-SPDP (Pierce), desalted
B3 was tested, and the binding result [3] was “binds”, the binding result [4] was “binds” and the “stoichiometry N” value [5] was 2.

B4: Fluorescein-labelled Psu S161C (natural protein, bacteriophage P4)
chain: B1 chain with S161C, C181S
modifications: fluorescein-5-maleimide on the single cysteine at 161
notes: Psu (polarity suppressor), capsid-decoration protein of bacteriophage P4; natural cysteines removed; also called FL-labelled S161C Psu; source: labelled with fluorescein-5-maleimide, excess dye removed
B4: binds [6]; binds [7].

B5: Fluorescein-labelled Psu S181C (natural protein, bacteriophage P4)
chain: B1 chain
modifications: fluorescein-5-maleimide on the single cysteine at 181
notes: Psu (polarity suppressor), capsid-decoration protein of bacteriophage P4; natural cysteines removed; also called FL-labelled S181C Psu; source: labelled with fluorescein-5-maleimide, excess dye removed
B5: binds [6]; binds [7].

Source: publication PMC3737525, “Structural and mechanistic basis of anti-termination of Rho-dependent transcription termination by bacteriophage P4 capsid protein Psu” (Nucleic Acids Research, 2013)
